The target in assay [1] is T1, human extracellular domain of TLT-1-Fc tagged protein (sTLT-1-Fc) (UniProt Q86YW5 16-162).
T1 chain: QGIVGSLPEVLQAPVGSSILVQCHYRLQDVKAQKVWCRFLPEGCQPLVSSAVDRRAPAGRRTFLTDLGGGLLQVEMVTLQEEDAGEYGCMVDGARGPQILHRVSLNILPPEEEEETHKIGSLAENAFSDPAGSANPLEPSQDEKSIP
The assay is described as follows: ELISA. (In general: An ELISA detects its analyte on a solid surface through an enzyme-linked reagent.)

Assay [2] has as its target T2, mouse TLT-1 on activated mouse platelets (mouse, UniProt Q8K558 21-317).
T2 construct: whole, on cells
T2 sequence (looked up): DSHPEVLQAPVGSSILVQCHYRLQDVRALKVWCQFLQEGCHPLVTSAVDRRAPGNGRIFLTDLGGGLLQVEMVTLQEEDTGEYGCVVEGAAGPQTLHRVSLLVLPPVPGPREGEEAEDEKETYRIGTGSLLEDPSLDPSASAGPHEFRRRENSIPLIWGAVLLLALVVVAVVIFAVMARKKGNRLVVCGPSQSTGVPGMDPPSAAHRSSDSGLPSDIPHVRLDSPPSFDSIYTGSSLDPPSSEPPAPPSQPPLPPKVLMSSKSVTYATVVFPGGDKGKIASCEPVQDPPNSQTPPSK
The experiment in a line: flow cytometry, collagen-activated mouse platelets in whole blood, FITC anti-His detection. Here is the method: To prepare activated human platelets, ADP (5 and 20 μM) were preincubated with human whole blood and the above proteins were then added to the ADP-treated whole blood. To prepare activated mouse platelets, collagen, at either 5 μg/ml or 10 μg/ml, was preincubated with mouse whole blood and the above proteins were then added to the […] whole blood. The binding of the proteins with platelets was detected with FITC-labeled—anti-His tag antibody.
The binding capability of sdAb 2-33TLT-His, sdAb sTF₂₀₉-PC1-sdAb 2-33TLT-His and sTF₂₀₉-PC1-sdAb 2-90TLT-His proteins to both human and mouse resting and activated platelets was tested by FACS assay. Citrated human (3 donors) and mouse (12 mice) whole blood were collected at room temperature (RT) and 10 μL of whole blood was used for each sample. To activate human platelets, ADP (5 and 20 μM) was used, and incubated with whole blood for 10 min at room temperature (RT). To activate mouse platelet, Type I fibrillary collagen (5 and 10 ug/ml) was used and incubated with whole blood for 10 min at room temperature (RT). […] After incubation for 30 min at room temperature, all samples were fixed with 500 μL of 5% paraformaldehyde for 10 min at RT and. analyzed by FACS (LSR II, Beckon Dickinson, San Jose, Calif.).
For orientation: A flow cytometer gives signals particle by particle.

The target in assay [3] is T3, human extracellular domain of TLT-1-Fc tagged protein (sTLT-1-Fc) (human, UniProt Q86YW5 16-162).
T3 construct: also called SILT-1-Fc; extracellular domain of human TLT-1; not shown: Fc tag
T3 sequence: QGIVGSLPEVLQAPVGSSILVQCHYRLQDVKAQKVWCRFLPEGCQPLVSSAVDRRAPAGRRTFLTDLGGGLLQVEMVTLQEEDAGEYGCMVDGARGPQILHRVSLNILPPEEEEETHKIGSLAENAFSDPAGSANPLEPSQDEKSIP
The experiment in a line: ELISA, human TLT-1 extracellular domain coated, anti-His-HRP detection, Kd fitted from OD450. As to the method:
The extracellular domain of human TLT-1 protein was coated onto a 96-well plate for ELISA. After 24 hours incubation at 4° C. and 2 hours of blocking at room temperature (RT) with the blocking buffer, increasing concentrations of ten anti-TLT-1 sdAbs, sTF₂₀₉-PC1sdAb 2-33TLT-His and sTF₂₀₉-PC2sdAb 2-90TLT-His proteins were added to the respective wells for 1-hour incubation at RT. Anti-His tag—HRP-labeled antibody was used to evaluate the binding.
The binding of sdAb 2-33TLT-His, sdAb 2-132TLT-His, sdAb 2-25TLT-His, sdAb 2-64 TLT-His, sdAb 2-90TLT-His, sdAb 2-127TLT-His, sdAb 2-2 TLT-His, sdAb 3-32TLTcur-His; sdAb 3-38TLT-His and sdAb 2-69TLT-His, sTF₂₀₉-PC1-sdAb 2-33TT-His and s TF₂₀₉-PC1-sdAb 2-90TLT-His proteins to the human extracellular domain of TLT-1-Fc tagged protein (sTLT-1-Fc) was analyzed using ELISA, sTLT-1-Fc (3 μg/ml) was immobilized onto a 96-well plate for 24 hours at 4° C. and each well immobilized with SILT-1-Fc was blocked with 2% BSA PBST (PBS plus 0.1% Tween 20) for 2 hours at room temperature (RT). Serial dilution (1000 nM to 0.001 nM) of TLT-sdAbs and sTF-sdAb fusion proteins was performed and diluted proteins were then added to the coated 96-well platelet and incubated for 1 hour. After 3 times of washing with PBST, anti-His HRP antibody was added and incubated for 1 hour at RT. The plate was then washed for 3 times to remove the excess HRP conjugate and 100 μL TMB substrate was then added and incubated for 10-15 mins. To stop the reaction of color development, 2M sulfuric acid was added to the well.

Assay [4] deals with T1, human extracellular domain of TLT-1-Fc …. The assay is described as follows: ELISA; second row printed 2-33; plot key shows sdAb 2-90TLT-His.
Assay [5] has the same target. The experiment in a line: ELISA.

Some results are limits rather than exact numbers.

B1: sdAb 2-90TLT-His (VHH)
VHH: QVQLVESGGGLVQAGGSLTLSCAASGSTSGINVMAWYRQAPGKQRELVANKARGGLPKYADFAKGRFTISRDNTKNTISLQMNSLKPEDTAVYYCNALLDWRLGDYWGQGTQVTVSS
notes: also called sdAb-2-90-His
The Kd is a measure of binding affinity in units of concentration. Consider B1, for which the Kd in assay [1] was 2.39 nM; in assay [3], under 10 nM; in assay [4], 2.67 nM. Further, the binding result in assay [2] is “binds”.

B2: sdAb 2-33TLT-His (VHH)
VHH: QVQLVESGGGLVQPGGSLTLSCAASGSIANIGGMAWYRRLPGNKRAMVASITSAGTASSYIDSVKGRFTISRDNAKNTVYLQMTSLKPEDTAVYLCKAWDRDLVDYWGQGIQVTVSS
notes: also called sdAb-2-33-His
B2: the Kd is 2.74 nM in assay [1], 4.47 nM in assay [5] and under 10 nM in assay [3].

B3: sTF209-PC1-sdAb 2-90TLT-His (other)
chain: MASMSGTTNTVAAYNLTWKSTNFKTILEWEPKPVNQVYTVQISTKSGDWKSKCFYTTDTECDLTDEIVKDVKQTYLARVFSYPAGNVESTGSAGEPLYENSPEFTPYLETNLGQPTIQSFEQVGTKVNVTVEDERTLVRRNNTFLSLRDVFGKDLIYTLYYWKSSSSGKKTAKTNTNEFLIDVDKGENYCFSVQAVIPSRTVNRKSTDSPVECGSGGGTGGGSGGSGGGTGGGSGAIEPRSFSQNQVQLVESGGGLVQAGGSLTLSCAASGSTSGINVMAWYRQAPGKQRELVANKARGGLPKYADFAKGRFTISRDNTKNTISLQMNSLKPEDTAVYYCNALLDWRLGDYWGQGTQVTVSSHHHHHH
notes: the entry also holds vector-derived N-terminal residues
With B3, the values for the Kd in assay [5] and in assay [3] were 1.19 nM and under 10 nM, respectively. In assay [2], the binding result is on record as “binds”.

B4: sTF209-PC1-sdAb 2-33TLT-His (other)
chain: MASMSGTTNTVAAYNLTWKSTNFKTILEWEPKPVNQVYTVQISTKSGDWKSKCFYTTDTECDLTDEIVKDVKQTYLARVFSYPAGNVESTGSAGEPLYENSPEFTPYLETNLGQPTIQSFEQVGTKVNVTVEDERTLVRRNNTFLSLRDVFGKDLIYTLYYWKSSSSGKKTAKTNTNEFLIDVDKGENYCFSVQAVIPSRTVNRKSTDSPVECGSGGGTGGGSGGSGGGTGGGSGAIEPRSFSQNQVQLVESGGGLVQPGGSLTLSCAASGSIANIGGMAWYRRLPGNKRAMVASITSAGTASSYIDSVKGRFTISRDNAKNTVYLQMTSLKPEDTAVYLCKAWDRDLVDYWGQGIQVTVSSHHHHHH
notes: the entry also holds vector-derived N-terminal residues; also called sTF209-PC1-dAb 2-33TLT-His; sTF209-sdAb 2-33TLT-His
Regarding B4, the figures for the equilibrium dissociation constant (Kd) in assay [5] and in assay [3] were 2.28 nM and under 10 nM, respectively.
